Data: article PMC7940618, “Specific inhibition of the Survivin–CRM1 interaction by peptide-modified molecular tweezers” (Nature Communications, 2021)
pIC50, pKd: −log10 of the molar value.

Key:
[1] = molecular target: TW-ELTLGEFL (asymmetrical molecular tweezer linked to the elongated peptide ELTLGEFL) (human); assay: ITC; tweezer conjugate (100 µM) in the cell, Survivin120 (1.2 mM WT or 2.5 mM K90/103T) in the syringe; PBS pH 7.4, 25 °C; one set of sites model
[2] = molecular target: TW-ELTL (asymmetrical molecular tweezer linked to the short peptide ELTL) (human); assay: as above
TW-ELTLGEFL-FAM (human) = assay: fluorescence polarisation; fluorescence anisotropy; 200 nM FAM-labeled tweezer titrated with Survivin120 (to 180 µM) or K90/103T (to 350 µM); PBS pH 7.4, 25 °C; single-site model
TW-ELTL-FAM (human) = assay: as above
Survivin142-HA (human) = Survivin142-HA (human) (UniProt O15392); assay: pull-down; competition in the pull-down of a5: 293T lysate with Survivin142-HA preincubated 1 h with 10 nM to 200 µM tweezer conjugate before GST-CRM1, RanQ69L and dGTP
[3] = molecular target: Atto488-labeled Survivin120 (human) (UniProt O15392); assay: fluorescence polarisation; fluorescence anisotropy competition; Atto488-Survivin120 preincubated with CRM1_1-1062VLV430AAA at 1:5, titrated with tweezers to approx. 180 µM; PBS pH 7.4, 25 °C; n = 1
Chain of Atto488-labeled Survivin120 (human) (O15392 1-120): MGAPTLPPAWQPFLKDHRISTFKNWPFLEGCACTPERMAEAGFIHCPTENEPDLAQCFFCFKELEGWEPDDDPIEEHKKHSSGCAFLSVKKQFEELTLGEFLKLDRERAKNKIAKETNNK

Chain of Survivin142-HA (human) (O15392 whole entry): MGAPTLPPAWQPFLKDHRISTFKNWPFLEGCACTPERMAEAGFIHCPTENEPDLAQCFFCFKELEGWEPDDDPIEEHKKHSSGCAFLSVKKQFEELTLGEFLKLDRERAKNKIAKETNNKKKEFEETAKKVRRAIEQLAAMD

Survivin120 K90/103T (from UniProt O15392 1-120) (domain or fragment)
pKd [1]: 4.44 | stoichiometry N (ligand/protein) [1]: 1 | pKd [2]: 4.30 | stoichiometry N (ligand/protein) [2]: 1 | pKd (TW-ELTLGEFL-FAM (human)): 4.04 | pKd (TW-ELTL-FAM (human)): 3.62

TW-ELTL (asymmetrical molecular tweezer linked to the short peptide ELTL)
concentration required to disrupt the Survivin–CRM1 complex (Survivin142-HA (human)): 10 to 50 µM | pIC50 [3]: 4.41
